Tests used:
Assay in all cases: SPR, captured hENG-hFc, soluble ligand
hENG(360-586)-hFc = target: T1, hENG(360-586)-hFc (human, UniProt P17813 360-586)
T1 construct: not shown: human IgG1 Fc domain
T1 sequence: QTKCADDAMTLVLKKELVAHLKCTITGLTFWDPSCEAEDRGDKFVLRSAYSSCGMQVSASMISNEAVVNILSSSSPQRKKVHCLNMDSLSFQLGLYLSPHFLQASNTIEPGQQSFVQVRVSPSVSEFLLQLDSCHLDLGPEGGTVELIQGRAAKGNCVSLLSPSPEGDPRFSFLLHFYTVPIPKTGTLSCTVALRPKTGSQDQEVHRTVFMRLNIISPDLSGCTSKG

hENG(458-581)-hFc = target: T2, hENG(458-581)-hFc (human, UniProt P17813 458-581)
T2 construct: Expressed in COS cells, not purified; not shown: human IgG1 Fc domain
T2 sequence: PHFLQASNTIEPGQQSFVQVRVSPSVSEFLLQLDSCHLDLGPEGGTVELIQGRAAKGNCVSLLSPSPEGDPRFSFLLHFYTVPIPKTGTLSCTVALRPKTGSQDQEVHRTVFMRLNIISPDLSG

hENG(166-346)-hFc = target: T3, hENG(166-346)-hFc (human, UniProt P17813 166-346)
T3 construct: not shown: human IgG1 Fc domain
T3 sequence: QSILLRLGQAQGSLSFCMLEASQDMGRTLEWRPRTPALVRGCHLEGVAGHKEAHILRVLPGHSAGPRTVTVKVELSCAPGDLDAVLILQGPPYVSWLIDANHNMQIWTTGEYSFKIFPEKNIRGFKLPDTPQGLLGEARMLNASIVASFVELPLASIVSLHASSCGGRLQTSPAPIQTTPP

hENG(26-329)-hFc = target: T4, hENG(26-329)-hFc (human, UniProt P17813 26-329)
T4 construct: not shown: human IgG1 Fc domain
T4 sequence: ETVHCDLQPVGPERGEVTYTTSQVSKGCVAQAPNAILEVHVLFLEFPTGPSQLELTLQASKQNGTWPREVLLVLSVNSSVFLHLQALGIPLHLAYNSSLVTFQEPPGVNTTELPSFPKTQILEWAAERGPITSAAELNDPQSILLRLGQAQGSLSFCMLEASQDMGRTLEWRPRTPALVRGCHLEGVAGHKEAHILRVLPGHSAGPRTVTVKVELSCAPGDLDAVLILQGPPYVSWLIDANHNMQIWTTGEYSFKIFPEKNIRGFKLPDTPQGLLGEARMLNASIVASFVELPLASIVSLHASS

hENG(133-346)-hFc = target: T5, hENG(133-346)-hFc (human, UniProt P17813 133-346)
T5 construct: not shown: human IgG1 Fc domain
T5 sequence: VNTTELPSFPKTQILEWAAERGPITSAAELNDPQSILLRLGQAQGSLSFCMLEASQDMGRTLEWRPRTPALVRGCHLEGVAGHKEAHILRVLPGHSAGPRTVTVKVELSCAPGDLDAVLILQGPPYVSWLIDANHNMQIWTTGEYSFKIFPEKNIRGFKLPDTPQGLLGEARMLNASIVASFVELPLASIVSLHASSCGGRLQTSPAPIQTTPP

hENG(360-581)-hFc = target: T6, hENG(360-581)-hFc (human, UniProt P17813 360-581)
T6 construct: not shown: human IgG1 Fc domain
T6 sequence: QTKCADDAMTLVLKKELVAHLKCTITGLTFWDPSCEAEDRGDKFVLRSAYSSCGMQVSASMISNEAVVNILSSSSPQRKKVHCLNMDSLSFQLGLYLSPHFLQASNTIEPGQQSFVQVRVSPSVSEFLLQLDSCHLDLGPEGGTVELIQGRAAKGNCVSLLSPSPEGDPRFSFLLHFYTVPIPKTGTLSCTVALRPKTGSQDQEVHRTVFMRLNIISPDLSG

hENG(458-586)-hFc = target: T7, hENG(458-586)-hFc (human, UniProt P17813 458-586)
T7 construct: Expressed in COS cells, not purified; not shown: human IgG1 Fc domain
T7 sequence: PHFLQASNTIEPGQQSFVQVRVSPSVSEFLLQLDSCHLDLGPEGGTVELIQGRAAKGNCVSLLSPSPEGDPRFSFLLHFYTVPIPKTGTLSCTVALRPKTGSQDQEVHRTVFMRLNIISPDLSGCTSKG

hENG(438-586)-hFc = target: T8, hENG(438-586)-hFc (human, UniProt P17813 438-586)
T8 construct: not shown: human IgG1 Fc domain
T8 sequence: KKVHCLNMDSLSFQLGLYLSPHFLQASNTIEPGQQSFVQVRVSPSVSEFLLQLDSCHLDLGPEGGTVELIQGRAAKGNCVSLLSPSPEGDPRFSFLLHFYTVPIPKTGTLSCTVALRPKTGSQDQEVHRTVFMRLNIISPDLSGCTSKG

hENG(26-257)-hFc = target: T9, hENG(26-257)-hFc (human, UniProt P17813 26-257)
T9 construct: not shown: human IgG1 Fc domain
T9 sequence: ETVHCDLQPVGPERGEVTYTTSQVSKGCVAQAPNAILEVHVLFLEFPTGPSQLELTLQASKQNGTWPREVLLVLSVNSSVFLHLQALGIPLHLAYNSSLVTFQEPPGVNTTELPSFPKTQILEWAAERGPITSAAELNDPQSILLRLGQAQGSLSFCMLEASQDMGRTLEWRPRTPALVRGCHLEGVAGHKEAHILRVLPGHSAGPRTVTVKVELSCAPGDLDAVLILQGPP

hENG(26-332)-hFc = target: T10, hENG(26-332)-hFc (human, UniProt P17813 26-332)
T10 construct: not shown: human IgG1 Fc domain
T10 sequence: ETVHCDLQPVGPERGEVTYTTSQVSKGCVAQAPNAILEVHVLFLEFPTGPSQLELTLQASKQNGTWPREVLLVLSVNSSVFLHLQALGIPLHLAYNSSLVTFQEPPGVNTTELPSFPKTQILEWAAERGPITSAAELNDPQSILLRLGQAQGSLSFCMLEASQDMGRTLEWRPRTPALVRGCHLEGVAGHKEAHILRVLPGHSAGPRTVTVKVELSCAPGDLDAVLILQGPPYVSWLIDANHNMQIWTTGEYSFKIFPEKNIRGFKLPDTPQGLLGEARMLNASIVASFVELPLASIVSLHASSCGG

Measured: binding result

B1: human BMP-9 (ligand, UniProt Q9UK05 320-429, looked up)
chain: SAGAGSHCQKTSLRVNFEDIGWDSWIIAPKEYEAYECKGGCFFPLADDVTPTKHAIVQTLVHLKFPTKVGKACCVPTKLSPISVLYKDDMGVPTLKYHYEGMSVAECGCR
notes: also called hBMP-9
no binding (tested: 100 nM): hENG(360-586)-hFc | hENG(458-581)-hFc | hENG(166-346)-hFc | hENG(26-329)-hFc | hENG(133-346)-hFc | hENG(360-581)-hFc | hENG(458-586)-hFc | hENG(438-586)-hFc | hENG(26-257)-hFc | hENG(26-332)-hFc

B2: human BMP-10 (ligand, UniProt O95393 317-424, looked up)
chain: NAKGNYCKRTPLYIDFKEIGWDSWIIAPPGYEAYECRGVCNYPLAEHLTPTKHAIIQALVHLKNSQKASKACCVPTKLEPISILYLDKGVVTYKFKYEGMAVSECGCR
notes: also called hBMP-10
no binding (tested: 100 nM): hENG(360-586)-hFc | hENG(458-581)-hFc | hENG(166-346)-hFc | hENG(26-329)-hFc | hENG(133-346)-hFc | hENG(360-581)-hFc | hENG(458-586)-hFc | hENG(438-586)-hFc | hENG(26-257)-hFc | hENG(26-332)-hFc

From US20200164029A1 (ACCELERON PHARMA, published 2020)
